Results: publication PMC6950786 (EBioMedicine, 2020)

Biological target: T1, GST-TNFAIP1(1–316) (UniProt Q13829 1-316)
T1 sequence (looked up): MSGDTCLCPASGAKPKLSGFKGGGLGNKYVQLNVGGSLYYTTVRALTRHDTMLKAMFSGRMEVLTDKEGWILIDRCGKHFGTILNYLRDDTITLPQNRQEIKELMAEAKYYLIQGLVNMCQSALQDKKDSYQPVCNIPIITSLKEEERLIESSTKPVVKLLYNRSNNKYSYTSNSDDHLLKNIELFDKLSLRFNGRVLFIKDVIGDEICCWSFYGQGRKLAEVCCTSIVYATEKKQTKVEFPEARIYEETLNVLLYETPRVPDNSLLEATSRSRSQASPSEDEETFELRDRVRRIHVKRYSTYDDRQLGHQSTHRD
Assay: pull-down

binding result: binds
B1: His-CSNK2B (natural protein)
chain: not shown
